Our source for the Kd values is article PMC4881898, “CD14 Is a Co-Receptor for TLR4 in the S100A9-Induced Pro-Inflammatory Response in Monocytes” (PLoS ONE, 2016).

This experiment deals with T1, recombinant human CD14 (human, UniProt P08571 20-345).
T1 construct: CD14, human, recombinant soluble protein from CHO cells; Check this against the vendor data sheet; source: bought: R&D Systems (cat no 383-CD-050/CF), derived from CHO cells
T1 sequence (looked up): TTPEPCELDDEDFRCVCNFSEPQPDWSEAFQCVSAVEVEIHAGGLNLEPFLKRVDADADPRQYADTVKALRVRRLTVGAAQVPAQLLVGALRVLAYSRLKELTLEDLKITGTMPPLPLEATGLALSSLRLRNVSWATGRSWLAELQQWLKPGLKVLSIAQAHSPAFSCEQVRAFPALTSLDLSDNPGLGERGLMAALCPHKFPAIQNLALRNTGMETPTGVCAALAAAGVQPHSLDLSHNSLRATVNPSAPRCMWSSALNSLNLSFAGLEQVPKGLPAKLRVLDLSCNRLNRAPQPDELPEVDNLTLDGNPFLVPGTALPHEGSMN
The experiment is described as follows: SPR; Biacore 3000; S100A8 and S100A9 immobilised in separate flow cells on a CM5 chip by amine coupling, to the same level; CD14 injected at 50 to 800 nM for 2 min at 30 ul/min in HBS-P (10 mM HEPES, 0.15 M NaCl, pH 7.4, 0.005% P20) with 1 mM Ca2+ and 20 uM Zn2+; regeneration with 3 mM EDTA; sensorgrams fit to a 1:1 model. Conditions: both partners purified. Background: Surface plasmon resonance follows binding to a sensor surface in real time, without labels.

The Kd is a measure of binding affinity in units of concentration.

B1: recombinant human S100A9 (natural protein, UniProt P06702 1-114, looked up)
chain: MTCKMSQLERNIETIINTFHQYSVKLGHPDTLNQGEFKELVRKDLQNFLKKENKNEKVIEHIMEDLDTNADKQLSFEEFIMLMARLTWASHEKMHEGDEGPGHHHKPGLGEGTP
notes: S100A9, human, recombinant; The discussion says the recombinant huS100A9 was produced in E. coli; Amine-coupled to the CM5 chip in the SPR experiment; also called huS100A9; source: recombinant, produced at Active Biotech AB, Lund, Sweden
As to B1, the dissociation constant Kd is 100 to 200 nM.
